Test results from patent US20030175904A1.

Legend:
Test in all cases: cell-based or functional assay
[1] = biological target: human PERV-A receptor PHuR-A1 (human) (UniProt Q9HAB3)
[2] = biological target: human PERV-A receptor PHuR-A2 (human) (UniProt Q9NWF4)
[3] = biological target: baboon PERV-A receptor PBaR-A1 (baboon) (UniProt Q863Y8)
Chain of UniProt Q863Y8 (Q863Y8 whole entry): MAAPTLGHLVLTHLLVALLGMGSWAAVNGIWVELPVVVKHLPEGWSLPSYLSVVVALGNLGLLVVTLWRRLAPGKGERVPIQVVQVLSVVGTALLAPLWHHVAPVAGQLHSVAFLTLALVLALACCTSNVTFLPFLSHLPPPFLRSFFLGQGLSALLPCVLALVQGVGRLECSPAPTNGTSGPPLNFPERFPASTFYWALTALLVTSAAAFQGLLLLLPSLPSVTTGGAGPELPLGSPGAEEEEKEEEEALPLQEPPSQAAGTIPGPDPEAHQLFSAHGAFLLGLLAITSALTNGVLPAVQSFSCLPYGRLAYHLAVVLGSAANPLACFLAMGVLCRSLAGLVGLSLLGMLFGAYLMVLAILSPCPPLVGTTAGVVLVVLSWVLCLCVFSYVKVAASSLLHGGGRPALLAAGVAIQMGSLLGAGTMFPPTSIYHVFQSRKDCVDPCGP

Chain of UniProt Q9HAB3 (Q9HAB3 whole entry G341S): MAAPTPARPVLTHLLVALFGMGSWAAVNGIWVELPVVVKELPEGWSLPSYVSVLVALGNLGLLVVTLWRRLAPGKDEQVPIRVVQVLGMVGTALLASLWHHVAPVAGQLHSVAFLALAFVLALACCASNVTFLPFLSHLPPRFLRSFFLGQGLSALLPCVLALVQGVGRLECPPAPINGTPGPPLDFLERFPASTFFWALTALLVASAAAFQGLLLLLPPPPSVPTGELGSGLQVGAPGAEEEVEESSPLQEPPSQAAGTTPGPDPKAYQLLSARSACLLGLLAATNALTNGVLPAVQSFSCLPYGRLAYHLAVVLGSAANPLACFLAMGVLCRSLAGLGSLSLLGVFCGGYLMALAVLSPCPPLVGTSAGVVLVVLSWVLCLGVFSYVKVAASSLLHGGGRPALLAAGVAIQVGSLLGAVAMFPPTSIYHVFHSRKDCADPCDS
Chain of UniProt Q9NWF4 (Q9NWF4 whole entry Q70R/V296M): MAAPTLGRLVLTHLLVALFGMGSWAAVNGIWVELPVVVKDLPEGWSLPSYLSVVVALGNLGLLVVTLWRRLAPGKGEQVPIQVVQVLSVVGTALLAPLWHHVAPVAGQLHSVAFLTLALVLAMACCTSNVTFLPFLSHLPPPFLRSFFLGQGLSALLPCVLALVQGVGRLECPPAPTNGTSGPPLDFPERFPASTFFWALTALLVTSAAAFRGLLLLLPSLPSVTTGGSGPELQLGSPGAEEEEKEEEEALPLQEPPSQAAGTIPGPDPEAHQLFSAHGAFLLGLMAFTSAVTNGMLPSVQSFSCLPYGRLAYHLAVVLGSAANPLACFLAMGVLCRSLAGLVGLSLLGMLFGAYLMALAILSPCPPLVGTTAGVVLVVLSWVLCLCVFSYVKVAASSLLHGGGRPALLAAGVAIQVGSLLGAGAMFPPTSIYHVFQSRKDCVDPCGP

Substance | Approximate LacZ pseudotype titer IU/ml [1] [IU/ml] | Approximate LacZ pseudotype titer IU/ml [2] [IU/ml] | Approximate LacZ pseudotype titer IU/ml [3] [IU/ml]
TelCeB PERV-A18 LacZ pseudotype (PERV-A envelope) | 6 | 1000 | 
PERV-A 14/220 envelope (ENV) protein, carried on replication competent recombinant PERV-A/PERV-C virus particles | 4000 | 20000 | 6000
